Columns and labels:
[1] = biological target: HIV-1 NL4-3 wild-type protease (PR) tagged with CFP or YFP (HIV-1 (NL4-3)); assay: FRET or BRET; as a1, cells cultured with 10 nM DRV added with the transfection
[2] = biological target: HIV-1 NL4-3 wild-type protease (PR) tagged with CFP or YFP (HIV-1 (NL4-3)); assay: FRET or BRET; FRET-based HIV-1 expression assay; COS-7 cells cotransfected with CFP- and YFP-tagged protease clones, 72 h, no DRV; acceptor photobleaching, CFP^A/B ratio > 1 means dimerization; confocal microscope, room temperature

**Q.** With “HIV-1 NL4-3 wild-type protease (PR) tagged with CFP or YFP (enzyme)” as the substance, how does the CFP^A/B ratio [1] read?
**A.** The CFP^A/B ratio was 1.04.

**Q.** And the CFP^A/B ratio [2]?
**A.** Its CFP^A/B ratio is 1.07.
